Assay results taken from paper PMC11332829, “Elucidating regulation of polyhydroxyalkanoate metabolism in Ralstonia eutropha: Identification of transcriptional regulators from phasin and depolymerase genes”.

What was measured:
[1] = biological target: T1, H16_B0227 (H-NS-like DNA-binding protein) (Ralstonia eutropha H16) (UniProt Q0K4P6); test: EMSA; conditions: EMSA: labeled DNA in TBE/glycerin-bromophenol blue with herring sperm DNA, 15 min at 30 C, 6% native PAGE at 4 C (protein eluted in 100 mM Tris-HCl pH 8, 150 mM)
T1 sequence: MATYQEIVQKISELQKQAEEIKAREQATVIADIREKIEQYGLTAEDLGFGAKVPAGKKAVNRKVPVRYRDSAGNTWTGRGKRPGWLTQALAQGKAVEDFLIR

[2] = biological target: T2, H16_B1672 (HTH XRE-family like protein) (Ralstonia eutropha H16) (UniProt Q0K0L7); test: EMSA; conditions: EMSA: labeled DNA in TBE/glycerin-bromophenol blue with herring sperm DNA, 15 min at 30 C, 6% native PAGE at 4 C (protein eluted in 100 mM Tris-HCl pH 8, 150 mM)
T2 sequence: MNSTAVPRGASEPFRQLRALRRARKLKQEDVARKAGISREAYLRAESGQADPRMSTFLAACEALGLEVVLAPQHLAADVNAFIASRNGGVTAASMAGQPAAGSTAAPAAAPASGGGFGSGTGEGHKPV

[3] = biological target: T3, PpiB (peptidyl-prolyl cis-trans isomerase) (Ralstonia eutropha H16?) (UniProt Q0KCB2); test: EMSA; conditions: EMSA: labeled DNA in TBE/glycerin-bromophenol blue with herring sperm DNA, 15 min at 30 C, 6% native PAGE at 4 C (protein eluted in 100 mM Tris-HCl pH 8, 150 mM)
T3 sequence: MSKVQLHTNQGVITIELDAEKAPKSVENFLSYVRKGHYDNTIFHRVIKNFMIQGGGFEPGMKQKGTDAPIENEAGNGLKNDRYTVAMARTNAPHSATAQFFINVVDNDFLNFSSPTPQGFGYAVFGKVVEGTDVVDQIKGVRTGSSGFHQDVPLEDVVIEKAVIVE

[4] = biological target: T4, H16_B1672 (HTH XRE-family like protein) (Ralstonia eutropha H16, UniProt Q0K0L7 1-128); test: EMSA; conditions: EMSA: labeled DNA in TBE/glycerin-bromophenol blue with herring sperm DNA, 15 min at 30 C, 6% native PAGE at 4 C (protein eluted in 100 mM Tris-HCl pH 8, 150 mM)
T4 sequence: T2 sequence

[5] = biological target: T4, H16_B1672 (HTH XRE-family like protein); test: EMSA; EMSA: labeled DNA in TBE/glycerin-bromophenol blue with herring sperm DNA, 15 min at 30 C, 6% native PAGE at 4 C (protein eluted in 100 mM Tris-HCl pH 8, 150 mM NaCl, 1 mM EDTA, 2.5 mM desthiobiotin); pull-down: crude extract, 0.5x TBE, salmon sperm DNA, 1 h at 8 C; conditions: protein: recombinant; tags: Strep-tag; chain copies: 2; label: 5'-32P on MG0235; blunt

ATCGAATTCGGACCCGCGTCCGAGGTATCGCAGCGCCTGGCTGACATCATGCTTGAGGCGTTGCGTCCAGTGTGATGGCGGCGGCGGGATGGCTGGTCACGCCCTATCGGATCGGCGGTGAACCATCGAATTCCGGCCGTTCACGTAACAGGATGCGGAAGACCGGTACGGGGTCGCAAGCAAGCGGGCCCCGCCAGCGGCGCGGCGCTTGATGTTTGGCGTTGCAGCAAGGCCTGTCCGACATATAGTGAAATCCTGGC (double strand) [PphaZ3 PCR fragment, EMSA]
binding [1]: no binding | binding [2]: no binding | binding [3]: no binding

ATCGGATCCGGGTGCTGCGCAATGCGGGCTTCAGCGCAGTTGGCGTGCCCGACAGCCGCATGGCCGGCTTCGTGCAAGGTGGGCGGGCGGGCGACAGGCTTCTGCCGCGGGTGCGTAGGTGGGAAGGTGGCGCTGGTGCACTGAGAAGTGCTGCGCGCGGCTCAGGTGCCGTCGATGTCGAATGGACTGGCTGCGGGAGGCTCCGGTCGAATTCGAT (double strand) [PphaZ5 PCR fragment, EMSA]
binding [1]: no binding | Kd [2]: 1500 nM | binding [3]: no binding

PphaZ5 PCR fragment, EMSA
Kd [4]: 1500 nM

B1: PphaP1 100-mer (MG0235/MG0236), EMSA (dsDNA)
DNA 1: TGGCGTCACAGCCGCTCCCGTGTATCGCCAGCAACGTTGTTTGTGCATTGCACAAAATCCACTTGACATTGGATCTGGCGCCCCTAAAATAGGAATTGTT
DNA 2: AACAATTCCTATTTTAGGGGCGCCAGATCCAATGTCAAGTGGATTTTGTGCAATGCACAAACAACGTTGCTGGCGATACACGGGAGCGGCTGTGACGCCA
Kd [5]: 175 nM
